Test [1] deals with DvTrx1C30S (Desulfovibrio vulgaris Hildenborough). Put plainly: cross-linking; mixed-disulfide trapping with single-cysteine variants: DTT-reduced DvTRi variant reacted with equimolar DvTrx1 variant activated as TNB mixed disulfide, 50 mM Na/K phosphate pH 8.8, 2 h at 37°C; non-reducing SDS-PAGE, western blot with antiserum against EcTrxA. (In general: In western blotting, separated proteins are transferred to a membrane and probed.)

Test [2] deals with DvTRi, isolated thioredoxin reductase from Desulfovibrio vulgaris Hildenborough (Desulfovibrio vulgaris Hildenborough). Nature of the test: crystal structure; oxidized DvTRi, 2.0 Å; crystals from 12% PEG 3350, 100 mM BisTris pH 6.0 (crystals 1) or 25% PEG 4000, 50 mM ammonium acetate, 100 mM sodium citrate pH 5.6 (crystals 2).
For test [3], the target named is T1, DvTR3 (Nitratidesulfovibrio vulgaris, UniProt Q72F38).
T1 construct: gene trxB-1; recombinant from E. coli, purified; FAD-containing
Put plainly: reduction of bound flavin, absorbance spectra, anaerobic. Type of test: biochemical. The following applies: 100 uM NAD(P)H, 50 mM Tris-HCl pH 7.5, 150 mM NaCl, 25 C.

Test [4] addresses T2, DvTR1 (Nitratidesulfovibrio vulgaris, UniProt Q72B02).
T2 construct: gene trxB-2; recombinant from E. coli, purified; FAD-containing
The test is described as above. Type of test: biochemical. To be noted: 100 uM NAD(P)H, 50 mM Tris-HCl pH 7.5, 150 mM NaCl, 25 C.

The target in test [5] is DvTrx1C33S (Desulfovibrio vulgaris Hildenborough). Put plainly: cross-linking; mixed-disulfide trapping with single-cysteine variants: DTT-reduced DvTRi variant reacted with equimolar DvTrx1 variant activated as TNB mixed disulfide, 50 mM Na/K phosphate pH 8.8, 2 h at 37°C; non-reducing SDS-PAGE, western blot with antiserum against EcTrxA.

T2 sequence (Q72B02 entry or part of it): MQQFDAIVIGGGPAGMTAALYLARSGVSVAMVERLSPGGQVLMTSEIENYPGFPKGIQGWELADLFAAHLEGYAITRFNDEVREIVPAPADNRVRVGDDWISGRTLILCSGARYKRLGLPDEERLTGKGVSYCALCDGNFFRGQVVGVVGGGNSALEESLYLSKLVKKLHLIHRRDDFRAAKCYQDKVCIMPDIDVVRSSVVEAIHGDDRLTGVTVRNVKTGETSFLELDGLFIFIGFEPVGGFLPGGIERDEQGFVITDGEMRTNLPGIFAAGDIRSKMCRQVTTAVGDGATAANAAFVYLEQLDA
T1 sequence (Q72F38 entry or part of it): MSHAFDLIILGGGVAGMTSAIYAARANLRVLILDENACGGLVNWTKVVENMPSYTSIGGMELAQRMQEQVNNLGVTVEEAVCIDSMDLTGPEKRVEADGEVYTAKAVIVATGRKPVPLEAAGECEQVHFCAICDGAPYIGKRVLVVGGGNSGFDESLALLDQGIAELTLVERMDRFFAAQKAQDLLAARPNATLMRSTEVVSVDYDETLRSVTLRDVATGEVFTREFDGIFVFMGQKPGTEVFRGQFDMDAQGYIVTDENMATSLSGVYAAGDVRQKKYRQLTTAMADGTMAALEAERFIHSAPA

One may read the stoichiometry N as a count of units in the complex or per binding partner. Compound DvTrx1C30S (natural protein) yielded a stoichiometry N in test [1] of 2.

As to “DvTRi, isolated thioredoxin reductase from Desulfovibrio vulgaris Hildenborough (enzyme)”, the stoichiometry N in test [2] was 2. Take `NC(=O)C1=CN([C@@H]2O[C@H](COP(=O)(O)OP(=O)(O)OC[C@H]3O[C@@H](n4cnc5c(N)ncnc54)[C@H](O)[C@@H]3O)[C@@H](O)[C@H]2O)C=CC1` [NADH]: in test [3], the “reduction of bound flavin, absorbance spectra, anaerobic” value was “DvTR1 and DvTR3 were efficiently reduced by their specific reductants”. For `NC(=O)C1=CN([C@@H]2O[C@H](COP(=O)(O)OP(=O)(O)OC[C@H]3O[C@@H](n4cnc5c(N)ncnc54)[C@H](OP(=O)(O)O)[C@@H]3O)[C@@H](O)[C@H]2O)C=CC1` [NADPH], the “reduction of bound flavin, absorbance spectra, anaerobic” value in test [4] is “DvTR1 and DvTR3 were efficiently reduced by their specific reductants”. In test [5], DvTrx1C33S (natural protein) returned a stoichiometry N of 2.

Source of the values: publication PMC5627308, “Biochemical Function, Molecular Structure and Evolution of an Atypical Thioredoxin Reductase from Desulfovibrio vulgaris” (Frontiers in Microbiology, 2017).
